Format in all cases: biochemical
A short description of series [1]: Enzyme-catalyzed acylation of 1,4-butanediol with ethyl acetate as acyl donor (Example 2). As to conditions: for Conversion at 3:1 (monoester:diester) / Conversion at 9:1 (monoester:diester) / Maximum monoester yield: 1,4-butanediol 20 mM in ethyl acetate; for Maximum monoester yield: 29° C. As for the experimental part:
(§1) Each diol was dissolved to a concentration of 20 mM together with 5 mM of 3-hexanone in ethyl acetate, ≧99% from Fluka, which was used as acyl donor and solvent. Reactions were started by adding 4 ml reaction solution to 20 mg enzyme carrier beads loaded with either wild-type or T40A mutated CALB. Reactions were run at 29° C. on a HLC rotating thermo block. Aliquots of 50 μl were taken, filtered through wool in a Pasteur pipette and diluted with 50 μl ethyl acetate prior to analysis. The 3-hexanon used as internal standard were present in the reaction solution throughout both reaction and analysis.
(§2) 5 mM 3-hexanone was used as internal standard in the reaction mixtures together with 20 mM diol. Aliquots were taken during the reaction by taking 50 μl of reaction sample. The samples were filtered though wool together with 50 μl ethyl acetate, thereby any remaining enzyme were removed and the reaction samples were diluted by a factor of 2 prior to analysis.
(§3) The reactions catalyzed by the T40A-mutant were rerun with 100 mg enzyme carrier beads for determination of maximum monoester yield. The reactions with 2-methyl-1,3-propanediol and 2-phenyl-1,3-propanediol were rerun at 100 mM concentration of diol and 50 mg enzyme carrier beads, both with CALB wild type and CALB T40A-mutant. This was done in order to determine the enantiomeric excess.
(§4) All reactions were analyzed on GC, Hewlett Packard 5890 series II. Two different 25 m×0.32 mm WCOT fused silica columns were used, depending on the different substrates and products that were analyzed. A polar GC-column with CP Chirasil-Dex CB coating was used for the reactions with 1,2-ethanediol and 1,3-propanediol. A non-polar GC-column with CP-SIL 5CB coating was used for the reactions with 1,4-butanediol, 2-methyl-1,3-propanediol and 2-phenyl-1,3-propanediol.
(§5) The response factor for each diol was determined in relationship to 3-hexanone. When all diol and mono-ester had converted to di-ester, the response factor for the di-ester could be determined in relationship to […]. The concentration of mono-ester in each reaction was determined by subtracting the concentration of di-ester from the starting concentration of diol.
(§6) A great difference in concentration between acyl donor and diol was accomplished in the reactions by using ethyl acetate as solvent and acyldonor and a diol concentration of 20 mM. Therefore the reactions was considered to irreversible, following the reaction scheme:
(§7) [formula] A, B and C corresponds to diol, monoester and diester, respectively. k1 and k2 respectively corresponds to the reaction rates of the acylation of diol and monoester.
(§8) The reaction rates are dependent on enzyme concentrations and the kcat/KM towards the substrates. By fitting the concentrations measured over time into the equations and using the enzyme concentration determined by active site titration, the following results were obtained.

Series [2] can be described thus: Active site titration with inhibitor and activity measurement after inhibition (Example 1). The settings on record: for Share of immobilized enzyme inhibited (activity measurements after inhibition): 50 μM inhibitor in acetonitrile, activity with 1-butanol and vinyl butyrate in MTBE. On the procedure: The amount of enzyme loaded on the carriers was confirmed by active site titration using the inhibitor methyl 4-methylumbelliferyl hexylphosphonate. Inhibitor from an ampoule stored in a freezer (−20° C.) was dissolved to a concentration of 50 μM in acetonitrile. The inhibitor was previously synthesized and used for active site titration of CALB as described in Magnusson, A. O., et al., Creating space for large secondary alcohols by rational redesign of Candida antarctica lipase B. Chembiochem, 2005. 6(6): p. 1051-1056 and Rotticci, D., et al., An active-site titration method for lipases. Biochimica Et Biophysica Acta-Molecular and Cell Biology of Lipids, 2000. 1483(1): p. 132-140.
Inhibition reactions were run in three separate vials each containing 50 mg enzyme carrier beads with immobilized CALB wild type and T40A-mutant. The wild type was run in one of the reaction vials, and the other two contained T40A-mutant. The enzymes were incubated in 1 ml of 50 μM inhibitor dissolved in acetonitrile. Each vial were sealed and covered in aluminium foil, to prevent light from damaging the fluorophore, and stored in continuous end over end. Aliquots were taken after 2, 5 and 9 days. […] Analysis was preformed by fluorescence using a Perkin Elmer LS 50 B fluorimeter. […] Fluorescence was also measured in two different control samples. Inhibitor, 50 μM in acetonitrile, was incubated without enzyme for control of background fluorescence from spontaneous hydrolysis of the methyl 4-methylumbelliferyl hexylphosphonate. In addition to this, 50 mg of each enzyme was incubated in acetonitrile without inhibitor for control of any background fluorescence from the immobilized enzyme. The total fluorescence from these samples was subtracted from the fluorescence measured in the inhibition reactions. […]
Remaining activity was measured after inhibition. […] For comparison, the reaction was repeated with the enzyme used for control of background fluorescence. […] The amounts of immobilized enzymes taken from the fluorescence controls used in the reactions were 2.8 mg of the wild type and 9.0 T40A. […]

Series [3] can be described thus: Enzyme-catalyzed acylation of 2-methyl-1,3-propanediol with ethyl acetate as acyl donor (Example 2). The settings on record: for Conversion at 3:1 (monoester:diester) / Maximum monoester yield: 2-Me-1,3-propanediol 20 mM in ethyl acetate; for Maximum monoester yield: 29° C. As for the experimental part: as §1, §2, §3, §4, §5, §6, §7, §8
The nature of series [4]: Enzyme-catalyzed acylation of 2-methyl-1,3-propanediol with vinyl butyrate as acyl donor (Example 3). As to conditions: 2-methyl-1,3-propanediol 10 mM, 200 mM vinyl butyrate in MTBE, 29° C. As for the experimental part: Each diol was dissolved to a concentration of 10 mM together with 2 mM of decane ≧98% from Fluka and 200 mM vinyl butyrate >99% from Fluka in MTBE 99.5% from Lab-Scan, which was used as acyl donor and solvent. Reactions were started by adding 4 ml reaction solution to 20 mg enzyme carrier beads loaded with either wild-type or T40A mutated CALB. Reactions were run at 29° C. on a HLC rotating thermo block. Aliquots of 50 μl were taken, filtered through wool in a Pasteur pipette and diluted with 50 μl ethyl acetate prior to analysis. The decane used as internal standard were present in the reaction solution throughout both reaction and analysis.
All reactions were analyzed on GC, Hewlett Packard 5890 series II. A 25 m×0.32 mm WCOT fused silica non-polar GC-column with CP-SIL 5CB coating was used for the reactions.
The response factor for each diol was determined in relationship to decane. When all diol and mono-ester had converted to di-ester, the response factor for the di-ester could be determined in relationship to decane. The concentration of mono-ester in each reaction was determined by subtracting the concentration of di-ester from the starting concentration of diol.

Setting [5] is: 2-methyl-1,3-propanediol, ethyl acetate.

B1: WT: non-mutated Candida antarctica lipase B (CALB), SEQ ID NO: 2, immobilized on carrier beads (protein, listed as Candida antarctica)
chain: LPSGSDPAFSQPKSVLDAGLTCQGASPSSVSKPILLVPGTGTTGPQSFDSNWIPLSAQLGYTPCWISPPPFMLNDTQVNTEYMVNAITTLYAGSGNNKLPVLTWSQGGLVAQWGLTFFPSIRSKVDRLMAFAPDYKGTVLAGPLDALAVSAPSVWQQTTGSALTTALRNAGGLTQIVPTTNLYSATDEIVQPQVSNSPLDSSYLFNGKNVQAQAVCGPLFVIDHAGSLTSQFSYVVGRSALRSTTGQARSADYGITDCNPLPANDLTPEQKVAAAALLAPAAAAIVAGPKQNCEPDLMPYARPFAVGKRTCSGIVTP
modifications: immobilized on carrier beads
Turning to B1, the figures for the “Conversion at 3:1 (monoester:diester)” value in series [1] and in series [3] were below 5% and 30%, respectively. Moreover, the “Conversion at 9:1 (monoester:diester)” value in series [1] was below 5%. For the same molecule, the Maximum monoester yield turned out to be 25% in series [1] and 42% in series [3]. Further, the Selectivity diol/monoester stood at 0.63 in series [1] (1,4-butanediol, ethyl acetate, listed as wild type); 0.6 in series [1] (1,4-butanediol, ethyl acetate, listed as wild type CALB); 1.5 in series [3] (setting [5]). Besides, the “Share of immobilized enzyme inhibited (activity measurements after inhibition)” value in series [2] was found to be 83%. The molecule also came in with a Maximum monoester yields in series [4] of 34%.

B2: T40A: CALB mutant with single mutation Thr40Ala (SEQ ID NO: 4) (protein)
chain: LPSGSDPAFSQPKSVLDAGLTCQGASPSSVSKPILLVPGXGTTGPQSFDSNWIPLSAQLGYTPCWISPPPFMLNDTQVNTEYMVNAITTLYAGSGNNKLPVLTWSQGGLVAQWGLTFFPSIRSKVDRLMAFAPDYKGTVLAGPLDALAVSAPSVWQQTTGSALTTALRNAGGLTQIVPTTNLYSATDEIVQPQVSNSPLDSSYLFNGKNVQAQAVCGPLFVIDHAGSLTSQFSYVVGRSALRSTTGQARSADYGITDCNPLPANDLTPEQKVAAAALLAPAAAAIVAGPKQNCEPDLMPYARPFAVGKRTCSGIVTP
modifications: T40 Mutant
Consider B2, for which the “Conversion at 3:1 (monoester:diester)” value in series [1] is on record as 64%; in series [3], 55%. In series [1], the “Conversion at 9:1 (monoester:diester)” value was determined as 26%. Further, the Maximum monoester yield was determined as 49% in series [1] and 55% in series [3]. The Selectivity diol/monoester in series [1] (1,4-butanediol, ethyl acetate) turned out to be 1.8; in series [1] (1,4-butanediol, ethyl acetate, listed as T40A CALB) it was 1.9; in series [3] (setting [5]) it was 2.6; in series [3] (2-methyl-1,3-propanediol, ethyl acetate, listed as T40A CALB), 2.5. The “Selectivity ratio diol/monoester T40A/WT” value in series [1] (1,4-butanediol, ethyl acetate) amounted to 2.9; in series [3] (setting [5]) it was 1.7. Moreover, the “Share of immobilized enzyme inhibited (activity measurements after inhibition)” value in series [2] was found to be 21%. For the same molecule, in series [2] (100 mM 1-butanol, 1 M vinyl butyrate in MTBE), the “Remaining activity after inhibition” value is “to low to measure”. This molecule gave a Maximum monoester yields in series [4] of 56%.
